# ± gives the uncertainty stated by the source.
# B1: SAM and SH3 domain-containing protein 1, residues 630 to 700; numbered along this chain, O94885 (parent)
# chain: GRPPQPKSVEDLLDRINLKEHMPTFLFNGYEDLDTFKLLEEEDLDELNIRDPEHRAVLLTAVELLQEYDSN
# Variants of: B1
# Experiment: abundance fitness (aPCA) (normalised: wild type 0, dead -1); higher = more abundant; growth selection in yeast, the domain comes from the species named
# Conditions: Homo sapiens
row,Variant,abundance fitness
1,GRPPQPKSVEDLLMRINLKEHMPTFLFNGYEDLDTFKLLEEEDLDELNIRDPEHRAVLLTAVELLQEYDSN,-0.34 ± 0.066
2,GRPPQPKSVEDLLDRINLKEHMPTFLFNGYEDLDTFKLLEEEMLDELNIRDPEHRAVLLTAVELLQEYDSN,-0.594 ± 0.056
3,GRPPQPKSVEDLLDRINLKEHMPTFLFNGYEDLDTFKLLEEEKLDELNIRDPEHRAVLLTAVELLQEYDSN,-0.117 ± 0.044
4,GRPPQPKSVEDLLDRINLKEHMPTFLFNGYEDLDTFKLLEEEDLDELNIRDPEHRDVLLTAVELLQEYDSN,-0.096 ± 0.046
5,GRPPQPKSVEDLNDRINLKEHMPTFLFNGYEDLDTFKLLEEEDLDELNIRDPEHRAVLLTAVELLQEYDSN,-0.802 ± 0.091
6,GRPPQPKSVEDLHDRINLKEHMPTFLFNGYEDLDTFKLLEEEDLDELNIRDPEHRAVLLTAVELLQEYDSN,-0.801 ± 0.096
7,GRPPQPKSVEDLTDRINLKEHMPTFLFNGYEDLDTFKLLEEEDLDELNIRDPEHRAVLLTAVELLQEYDSN,-0.861 ± 0.077
8,GRPPQPKSVEDLSDRINLKEHMPTFLFNGYEDLDTFKLLEEEDLDELNIRDPEHRAVLLTAVELLQEYDSN,-0.887 ± 0.068
9,GRPPQPKSVEDLLDRINLKEHMPTFLFNGYEDADTFKLLEEEDLDELNIRDPEHRAVLLTAVELLQEYDSN,-0.883 ± 0.087
10,GRPPQPKSVEDLLDRINLKEHMPTFLFNGYEDLDTFKLLCEEDLDELNIRDPEHRAVLLTAVELLQEYDSN,0.186 ± 0.042
11,GRPPQPKSVEDLLDRINLKEHMPQFLFNGYEDLDTFKLLEEEDLDELNIRDPEHRAVLLTAVELLQEYDSN,-0.544 ± 0.064
12,GRPPQPKSVEDLLDRINLKEHMPDFLFNGYEDLDTFKLLEEEDLDELNIRDPEHRAVLLTAVELLQEYDSN,-0.622 ± 0.064
13,GRPPQPKSVEDLLDRINLKEHMPYFLFNGYEDLDTFKLLEEEDLDELNIRDPEHRAVLLTAVELLQEYDSN,-0.98 ± 0.097
14,GRPPQPKSVEDLLDRINLKHHMPTFLFNGYEDLDTFKLLEEEDLDELNIRDPEHRAVLLTAVELLQEYDSN,-0.484 ± 0.074
15,GRPPQPKSVEDLLDRINLKGHMPTFLFNGYEDLDTFKLLEEEDLDELNIRDPEHRAVLLTAVELLQEYDSN,-0.673 ± 0.094
16,GRPPQPKSVEDLLDRINLKVHMPTFLFNGYEDLDTFKLLEEEDLDELNIRDPEHRAVLLTAVELLQEYDSN,-0.203 ± 0.054
17,GRPPQPKSQEDLLDRINLKEHMPTFLFNGYEDLDTFKLLEEEDLDELNIRDPEHRAVLLTAVELLQEYDSN,-0.796 ± 0.087
18,GRPPQPKSVEDLLDRINLKEHMPTFLFNGYEDLDTFKLLEEEDLDELNIRDPEHRAVLLTAVELLREYDSN,0.33 ± 0.034
19,GRPPQPKSVEDLLDRINLKEHMPTFLFNGYEDLDTFKLLEEEDLDELNIRDPEHRAVLLTAVELLAEYDSN,-0.317 ± 0.048
20,GRPPQPKSVEDLLDRINLKEHMPTFLFNGYEDLDTFKLLEEEDLDELNIRDPEHRAVLLTAVELLMEYDSN,-0.422 ± 0.054
21,GRPPQPKSVEDLLDRINLKEHMPTFLFNGYEDLDTFKLLEEEDLDELNIRDPEHRAVLLTAVELLPEYDSN,-0.673 ± 0.056
22,GRPPQPKSVEDLLDRINLKEHMPTFLFNGYEDLDTFKLLEEEDLDELNIRDPEHRAVLLTAVELLKEYDSN,0.267 ± 0.041
23,GRPPQPKSVEDLLDRINLKEHMPTFLFNGYEDLDTFKLLEEEDLDELNIRDPEHRAVLLTAVEHLQEYDSN,0.222 ± 0.041
24,GRPPQPKSVEDLLDRINLKEHMPTFLFNGYEDLDTFKLLEEEDLDELNIRDPEHRAVLLTAVEKLQEYDSN,0.264 ± 0.044
25,GRPPQPKSVEDHLDRINLKEHMPTFLFNGYEDLDTFKLLEEEDLDELNIRDPEHRAVLLTAVELLQEYDSN,-0.924 ± 0.096
26,GRPPQPKSVEDCLDRINLKEHMPTFLFNGYEDLDTFKLLEEEDLDELNIRDPEHRAVLLTAVELLQEYDSN,-0.654 ± 0.077

row,Variant,abundance fitness
1,GRPPQPKSVEDLLDRINLKEHMPTFLFIGYEDLDTFKLLEEEDLDELNIRDPEHRAVLLTAVELLQEYDSN,-1.08 ± 0.11
2,GRPPQPKSVEDLLDRINLKEHMPTFLFNGYEDLDTFKLLEEEDLDELNIEDPEHRAVLLTAVELLQEYDSN,-0.146 ± 0.057
3,GRPPQPKSVEDLLDRINLKEHMPTFLFNGYEALDTFKLLEEEDLDELNIRDPEHRAVLLTAVELLQEYDSN,-0.579 ± 0.056
4,GRPPQPKSVENLLDRINLKEHMPTFLFNGYEDLDTFKLLEEEDLDELNIRDPEHRAVLLTAVELLQEYDSN,-0.605 ± 0.067
5,GRPPQPKSVEFLLDRINLKEHMPTFLFNGYEDLDTFKLLEEEDLDELNIRDPEHRAVLLTAVELLQEYDSN,-0.925 ± 0.08
6,GRPPQPKRVEDLLDRINLKEHMPTFLFNGYEDLDTFKLLEEEDLDELNIRDPEHRAVLLTAVELLQEYDSN,-0.836 ± 0.082
7,GRPPQPKSVEDLLDRINLKEWMPTFLFNGYEDLDTFKLLEEEDLDELNIRDPEHRAVLLTAVELLQEYDSN,-0.248 ± 0.047
8,GRPPQPKSVEDLLDRINLKEPMPTFLFNGYEDLDTFKLLEEEDLDELNIRDPEHRAVLLTAVELLQEYDSN,-0.798 ± 0.065
9,GRPPQPKSVEDLLDRINLREHMPTFLFNGYEDLDTFKLLEEEDLDELNIRDPEHRAVLLTAVELLQEYDSN,-0.032 ± 0.035
10,GRPPQPKSVEDLLDRINLVEHMPTFLFNGYEDLDTFKLLEEEDLDELNIRDPEHRAVLLTAVELLQEYDSN,-0.293 ± 0.042
11,GRPPQPKSVEDLLDRINLPEHMPTFLFNGYEDLDTFKLLEEEDLDELNIRDPEHRAVLLTAVELLQEYDSN,-0.279 ± 0.043
12,GRPPQPKSVEDLLDRIILKEHMPTFLFNGYEDLDTFKLLEEEDLDELNIRDPEHRAVLLTAVELLQEYDSN,-0.851 ± 0.086
13,GRPPQPKSVEDLLDRINLKEHMPTFLFNGYEDLDTFKLLEEEDLDEANIRDPEHRAVLLTAVELLQEYDSN,-0.698 ± 0.053
14,GRPPQPKSVEDLLDRINLKEHMMTFLFNGYEDLDTFKLLEEEDLDELNIRDPEHRAVLLTAVELLQEYDSN,-0.268 ± 0.061
15,GRPPQPKSVEDLLDRINLKEHMPTFLFNGYEDLDTFKLLEEEDLDELNIRDPERRAVLLTAVELLQEYDSN,-0.823 ± 0.053
16,GRPPQPKSVEDLLDRINLKEHMPTFLFNGYEDLDTFKLLEEEDLDELNIRDPEYRAVLLTAVELLQEYDSN,-0.857 ± 0.074
17,GRPPQPKSVEDLLDRINLKEHMPTFLFNGYEDLDTFKLLEEEDLDELNIRDPEHRAVLLTAVELLQKYDSN,-0.094 ± 0.046
18,GRPPQPKSVEDLLDRINLKEHMPTFLFNGYEDLDTFKLLEEEDLDELNIRDPEHRAVLLTAVELLQEYDSD,0.197 ± 0.047
19,GRPPQPKSVEDLLDRINLKEHMPTFLFNGHEDLDTFKLLEEEDLDELNIRDPEHRAVLLTAVELLQEYDSN,-0.737 ± 0.071
20,GRPPQPKSVEDLLDRINLKEHMPTFLFNGYEDLDTFKLLEEEDLDELNIRDPEHRAVLLTAVELLQEYASN,-0.386 ± 0.047
21,GRPPQPKSVEDLLDRINLKEHMPTFLFNGYEDLDTFKLLEEEDLDELNRRDPEHRAVLLTAVELLQEYDSN,-0.831 ± 0.053
22,GRPPQPKSVEDLLDRINLKEHMPTFLFNGYEDLDTFKLLEEEDLDELNIRDPEHRAVLLTAVELVQEYDSN,-0.452 ± 0.056
23,GRPPQPKSVEDLLDRINLKEHMPTFLFNGYEDLDTFKLLEEEDLDELNIRDPEHRAVLLTAVELIQEYDSN,-0.433 ± 0.052
24,GRPPQPKSVEDLLDRINLKEHMPTFLFNGYEDLDTFKLLEEEDLDELNIRDPEHRAVLLTAVMLLQEYDSN,-0.492 ± 0.063
25,GRPPQPESVEDLLDRINLKEHMPTFLFNGYEDLDTFKLLEEEDLDELNIRDPEHRAVLLTAVELLQEYDSN,-0.002 ± 0.069
26,GRPPQPCSVEDLLDRINLKEHMPTFLFNGYEDLDTFKLLEEEDLDELNIRDPEHRAVLLTAVELLQEYDSN,-0.533 ± 0.066

row,Variant,abundance fitness
1,GRPPQPKSVEDLLDRINLKEHMPTFLFNGYEDLDTFKLLEEEDLDELNIRDPEHRAVLLTQVELLQEYDSN,-0.036 ± 0.057
2,GRPPQPKSVEDLLDRINLKEHMPTFLFNGYEDLDTFKLLEEEDLDELNIRDPEHRAVLLTWVELLQEYDSN,-0.287 ± 0.064
3,GRPPQPKSVEDLLDRINLKEHMPTFLFNGYEDLDTFKLLEEEDLDELNIRTPEHRAVLLTAVELLQEYDSN,-0.505 ± 0.048
4,GRPPQPKSVEDLLDRINLKEHMPTFLFNQYEDLDTFKLLEEEDLDELNIRDPEHRAVLLTAVELLQEYDSN,-0.959 ± 0.093
5,GRPPQPKSVEDLLDQINLKEHMPTFLFNGYEDLDTFKLLEEEDLDELNIRDPEHRAVLLTAVELLQEYDSN,-0.017 ± 0.045
6,GRPPQPKSVEDLLDRINLKEHMPTFLFNGYEDLDTFKLLEEEDLDELNIRDPEHRAVLLTAVELLQEMDSN,0.025 ± 0.053
7,GRPCQPKSVEDLLDRINLKEHMPTFLFNGYEDLDTFKLLEEEDLDELNIRDPEHRAVLLTAVELLQEYDSN,-0.088 ± 0.072
8,GRPPQPKSVEDLLDRINLKEHMPTFLFNGYEDLDTFSLLEEEDLDELNIRDPEHRAVLLTAVELLQEYDSN,-0.337 ± 0.045
9,GRPPQPKSVEDLLDRINLKEHMPTFLFNGYEDLDTFFLLEEEDLDELNIRDPEHRAVLLTAVELLQEYDSN,-0.946 ± 0.11
10,GRPPQPKSVEDLLDRINLKEHMPTFLFNGYEDLDTFKLLEMEDLDELNIRDPEHRAVLLTAVELLQEYDSN,-0.578 ± 0.073
11,GRPPQPKSVEDLLDRINLKEHMPTFLFNGYEDLDTFKLLEREDLDELNIRDPEHRAVLLTAVELLQEYDSN,-0.499 ± 0.054
12,GRPPQPKSVEDLLDRINLKEHMPTFLFNGYEDLDTFKLLENEDLDELNIRDPEHRAVLLTAVELLQEYDSN,-0.408 ± 0.061
13,GRPPQPKSVEDLLDRINLKEHMPTFLFNGYEDLDTFKLLEEEDLDELNIRDPEHTAVLLTAVELLQEYDSN,-0.89 ± 0.083
14,GRPPQPKSVEDLLDRINLKEHMPTFLFNGYEDLDTFKLLEETDLDELNIRDPEHRAVLLTAVELLQEYDSN,0.035 ± 0.039
15,GRPPQPKSVEDLLDRINLKEHMPTFLFNGYEDLDTFKLLEEEDLDELNIRDPEHRAVLNTAVELLQEYDSN,-0.491 ± 0.063
16,GRPPQPKSVEDLLDRINLKEHMPTALFNGYEDLDTFKLLEEEDLDELNIRDPEHRAVLLTAVELLQEYDSN,-0.837 ± 0.072
17,GRPPQPKSVEDLLDRINLKEHMPTFLFNGYEDLDTFKLLEEEDMDELNIRDPEHRAVLLTAVELLQEYDSN,-0.702 ± 0.073
18,GRPPQPKSVEDLLDRINLKEHMPTFLFNGYEDLDTFKLLEEEDLDELNIRDPEHRAQLLTAVELLQEYDSN,0.251 ± 0.041
19,GRPPQPKSVEDLLDRINLKEHMPTFLFNGYEDLDTFKLLEEEDLDELNIRDPEHRAVLLTAFELLQEYDSN,-0.916 ± 0.1
20,GRPPQPKSVEDLLDRINLKEHMPTFLFNGYEDLDTTKLLEEEDLDELNIRDPEHRAVLLTAVELLQEYDSN,-0.64 ± 0.064
21,GRPPQPKSVEDLLDRINLKEHMPTFLFNGYQDLDTFKLLEEEDLDELNIRDPEHRAVLLTAVELLQEYDSN,0.029 ± 0.044
22,GRPPQPKSVNDLLDRINLKEHMPTFLFNGYEDLDTFKLLEEEDLDELNIRDPEHRAVLLTAVELLQEYDSN,-0.53 ± 0.061
23,GRPPQPKSVEDLLDRINLKEHMPTFMFNGYEDLDTFKLLEEEDLDELNIRDPEHRAVLLTAVELLQEYDSN,-0.043 ± 0.045
24,GRPPQPKSVEDLLDRINLKEHMPTFVFNGYEDLDTFKLLEEEDLDELNIRDPEHRAVLLTAVELLQEYDSN,0.034 ± 0.037

# Reference: the Human Domainome abundance scans (Beltran et al. 2025)
